How the values were obtained:
[1] = test system: normal human tissues; assay: Tissue cross-reactivity study, frozen tissue sections; type: binding; set-up: key to tissue staining: 1+=weak staining; 2+=moderate staining; 3+=strong staining; 4+=intense staining; Neg=negative; freq=frequent (staining in >75%-100% of cells); occ=occasional (staining in >25%-50% of cells); rare refers to staining in 1-5% of cells; details: for tissue staining: Human, 1-3 μg/ml
Description: (§1) Tissue cross-reactivity studies were conducted to assess the binding profile (both on- and potential off-target binding) to human and relevant species used in nonclinical safety testing. Humanized anti-STn antibodies were examined for binding to a panel of normal human, rat, mouse, and cynomolgus monkey tissues. The study was conducted on […] normal frozen tissue sections at 1-3 μg/ml: heart, brain, kidney, stomach, lung, small intestines, colon, liver, pancreas, spleen and bone marrow. The positive control was a human pancreatic neoplasm that contained STn positive cancer cells and the negative control was normal stromal cells contained within the same specimen. Staining across all normal tissues was restricted to the cytoplasm. Additional analyses were conducted without primary antibody or using isotype control IgG as negative controls.
(§2) Antibodies were also found to cross react with similar types of tissue from Cynomolgus monkey (see Table 17) and rat (not shown).

[2] = test system: cynomolgus monkey tissues; assay: as above; type: binding; set-up: key: 1+=weak staining; 2+=moderate staining; 3+=strong staining; 4+=intense staining; Neg=negative; freq=frequent (staining in >75%-100% of cells); occ=occasional (staining in >25%-50% of cells); rare refers to staining in 1-5% of cells; details: Cyno, 1-3 μg/ml
Description: as §1, §2

[3] = test system: Primary patient CRC samples; assay: STn expression in primary patient CRC samples by flow cytometry; type: cell-based; details: % of viable CD45−/CD34− population
Source text: Primary patient CRC samples were probed by flow cytometry with hSIA101 and two commercial antibodies B72.3 and CC49. All 10 samples tested were STn positive. In the table, % STn is expressed as % of viable CD45−/CD34− population. STn expression was often more robustly identified with hSIA101 than the commercial antibodies.

[4] = molecular target: bovine submaxillary mucin (BSM); assay: BSM ELISA, periodate-sensitive STn binding; details: periodate-sensitive STn binding curve, 0 to 100 nM
Description: For BSM ELISA analysis, antibodies were screened over a concentration range of 0 to 100 nM on bovine submaxillary mucin (BSM) coated wells. A subset of wells were treated with mild periodate solution before antibody introduction to remove the side chain on terminal sialic acid residues (destroying the STn antigen). Optical densities of periodate and non-periodate-treated wells were determined and log transformed then fit to a nonlinear regression model to obtain a dose response curve. Optical density values obtained from periodate-treated wells were subtracted from non-periodate treated wells to obtain a periodate-sensitive STn binding curve and corresponding EC50 values.

[5] = Small Intestine Epithelial Cells

B1: hSIA101 (antibody, V domains shown)
VH: EVQLVQSGAEVKKPGASVKVSCKASGYTFTDHAIHWVRQAPGQGLEWMGYFSPGNDDIKYNEKFRGRVTMTADKSSSTAYMELRSLRSDDTAVYFCKRSLSTPYWGQGTLVTVSS
VL: DIVMTQSPDSLAVSLGERATINCKSSQSLLNRGNHKNYLTWYQQKPGQPPKLLIYWASTRESGVPDRFSGSGSGTDFTLTISSLQAEDVAVYYCQNDYTYPYTFGQGTKVEIK
- staining of cerebrum, cerebellum, kidney and liver [1]: did not stain
- staining of positive control tissue (pancreatic neoplasm) [1]: strong membrane staining
- tissue staining ([1]; Colon Epithelial Cells): 1+ freq (cytoplasm)
- tissue staining ([1]; Colon Vessel): Neg
- tissue staining ([1]; Heart Vessel): 2+ rare (cytoplasm)
- tissue staining ([1]; Lung Epithelium): Neg
- tissue staining ([1]; Pancreas Vessel): Neg
- tissue staining [1, 5]: 2-4+ freq (cytoplasm)
- tissue staining ([1]; Spleen Vessel): 2-3+ freq (cytoplasm)
- tissue staining ([1]; Stomach Epithelial Cells): 2-3+ freq (cytoplasm)
- tissue staining ([1]; Stomach Vessel): Neg
- cross-reactivity with normal human tissues ([1]; among the three tested antibodies): lowest cross-reactivity
- staining on cell membranes in any tissue ([1]; normal tissues): No staining was observed
- tissue staining ([2]; Colon Epithelial Cells): Neg
- tissue staining ([2]; Colon Vessel): 4+ freq (cytoplasm)
- tissue staining ([2]; Heart Vessel): Neg
- tissue staining ([2]; Lung Epithelium): 2-3+ freq (cytoplasm)
- tissue staining ([2]; Pancreas Vessel): 2-3+ freq (cytoplasm)
- tissue staining [2, 5]: 3-4+ freq (cytoplasm)
- tissue staining ([2]; Spleen Vessel): Neg
- tissue staining ([2]; Stomach Epithelial Cells): 2-3+ occ (cytoplasm)
- tissue staining ([2]; Stomach Vessel): 2+ occ (cytoplasm)
- % STn+ ([3]; Sample 160093-2, Colon): 22.9%
- % STn+ ([3]; Sample 160101-2, Colon): 10%
- % STn+ ([3]; Sample 160102-2, Colon): 12.9%
- % STn+ ([3]; Sample 160104-2, Colon Met to Liver): 47.8%
- % STn+ ([3]; Sample 160115-2, Colon): 5.4%
- % STn+ ([3]; Sample 160127-2, Colon): 4.2%
- % STn+ ([3]; Sample 160149-1, Colon): 22.7%
- % STn+ ([3]; Sample 160151-1, Colon): 19.6%
- % STn+ ([3]; Sample 169068-1, Colon): 10.9%
- % STn+ ([3]; Sample 1601666, Colon): 29.4%
- EC50 [4]: 4.2 nM

Source: US20230001007A1, “Glycan-Interacting Compounds and Methods of Use” (Seagen Inc., priority 2017, published 2023)
